Experimental data from patent publication EP1143253A1.

How the values were obtained:
[1] = molecular target: human p97 (melanotransferrin), GPI-anchored membrane form (human) (UniProt P08582); assay: FACS, L235 on p97aWTBc7 cells after PI-PLC treatment, against untreated stained cells
[2] = molecular target: human p97 (melanotransferrin), GPI-anchored membrane form (human) (UniProt P08582); assay: FACS, L235 on p97aWTBc3 cells after PI-PLC treatment, against untreated stained cells
[3] = molecular target: human p97 (melanotransferrin), GPI-anchored membrane form (human) (UniProt P08582); assay: FACS on Sf9 cells infected with p97 B-1-1, pre-incubated with PI-PLC; L235 supernatant, goat anti-mouse IgG-FITC
[4] = molecular target: human p97 (melanotransferrin), GPI-anchored membrane form (human) (UniProt P08582); assay: FACS on Sf9 cells infected with p97 recombinant baculovirus p97 B-2-1; L235 supernatant, goat anti-mouse IgG-FITC
[5] = molecular target: human p97 (melanotransferrin), GPI-anchored membrane form (human) (UniProt P08582); assay: FACS on Sf9 cells infected with p97 recombinant baculovirus p97 B-1-1; L235 supernatant, goat anti-mouse IgG-FITC
[6] = molecular target: human p97 (melanotransferrin), GPI-anchored membrane form (human) (UniProt P08582); assay: FACS on SK-MEL-28 cells pre-incubated with PI-PLC (60 min, 37 C), which removes p97; L235 supernatant, goat anti-mouse IgG-FITC
[7] = molecular target: human p97 (melanotransferrin), GPI-anchored membrane form (human) (UniProt P08582); assay: FACS on SK-MEL-28 cells; L235 hybridoma supernatant, goat anti-mouse IgG-FITC
[8] = molecular target: human p97 (melanotransferrin), GPI-anchored membrane form (human) (UniProt P08582); assay: FACS on Sf9 cells infected with p97 B-2-1, pre-incubated with PI-PLC; L235 supernatant, goat anti-mouse IgG-FITC
[9] = molecular target: human p97 (melanotransferrin), GPI-anchored membrane form (human) (UniProt P08582); assay: FACS, L235 on SK-MEL-28 cells after Pronase treatment, against untreated stained cells
[10] = molecular target: human p97 (melanotransferrin), GPI-anchored membrane form (human) (UniProt P08582); assay: FACS, L235 on SK-MEL-28 cells after PI-PLC treatment, against untreated stained cells
[11] = molecular target: human transferrin receptor, membrane form (human) (UniProt P02786); assay: FACS, OKT9 on SK-MEL-28 cells after Pronase treatment, against untreated stained cells
[12] = molecular target: human transferrin receptor, membrane form (human) (UniProt P02786); assay: FACS, OKT9 on SK-MEL-28 cells after PI-PLC treatment, against untreated stained cells
[13] = molecular target: Thy-1 on EL-4 mouse lymphoma cells (mouse) (UniProt P01831); assay: FACS, T24/37.1 on EL-4 cells after Pronase treatment, against untreated stained cells
[14] = molecular target: Thy-1 on EL-4 mouse lymphoma cells (mouse) (UniProt P01831); assay: FACS, T24/37.1 on EL-4 cells after PI-PLC treatment, against untreated stained cells

Sequence of UniProt P08582 (P08582 20-709): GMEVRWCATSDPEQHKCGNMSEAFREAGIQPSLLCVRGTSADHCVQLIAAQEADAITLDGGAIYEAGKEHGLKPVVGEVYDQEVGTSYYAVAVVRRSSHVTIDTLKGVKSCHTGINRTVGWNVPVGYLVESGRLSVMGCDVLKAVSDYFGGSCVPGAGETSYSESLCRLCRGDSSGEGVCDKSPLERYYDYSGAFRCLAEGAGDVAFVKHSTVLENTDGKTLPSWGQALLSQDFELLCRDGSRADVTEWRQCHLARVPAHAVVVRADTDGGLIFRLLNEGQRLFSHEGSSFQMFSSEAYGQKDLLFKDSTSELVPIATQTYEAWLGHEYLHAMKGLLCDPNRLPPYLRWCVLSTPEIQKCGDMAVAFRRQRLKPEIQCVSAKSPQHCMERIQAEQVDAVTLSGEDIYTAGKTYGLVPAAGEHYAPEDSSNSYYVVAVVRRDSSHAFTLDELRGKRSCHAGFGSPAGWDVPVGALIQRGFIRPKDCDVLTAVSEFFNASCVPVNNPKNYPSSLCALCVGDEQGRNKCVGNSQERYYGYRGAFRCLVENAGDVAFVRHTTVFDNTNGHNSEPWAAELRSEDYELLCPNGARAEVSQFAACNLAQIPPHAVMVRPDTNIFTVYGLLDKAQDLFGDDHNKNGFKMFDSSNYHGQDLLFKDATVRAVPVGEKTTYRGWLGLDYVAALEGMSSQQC
Sequence of UniProt P01831 (P01831 20-131): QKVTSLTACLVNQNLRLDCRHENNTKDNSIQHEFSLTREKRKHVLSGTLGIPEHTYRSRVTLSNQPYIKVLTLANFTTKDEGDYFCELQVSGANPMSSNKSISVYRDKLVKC
Sequence of UniProt P02786 (P02786 whole entry): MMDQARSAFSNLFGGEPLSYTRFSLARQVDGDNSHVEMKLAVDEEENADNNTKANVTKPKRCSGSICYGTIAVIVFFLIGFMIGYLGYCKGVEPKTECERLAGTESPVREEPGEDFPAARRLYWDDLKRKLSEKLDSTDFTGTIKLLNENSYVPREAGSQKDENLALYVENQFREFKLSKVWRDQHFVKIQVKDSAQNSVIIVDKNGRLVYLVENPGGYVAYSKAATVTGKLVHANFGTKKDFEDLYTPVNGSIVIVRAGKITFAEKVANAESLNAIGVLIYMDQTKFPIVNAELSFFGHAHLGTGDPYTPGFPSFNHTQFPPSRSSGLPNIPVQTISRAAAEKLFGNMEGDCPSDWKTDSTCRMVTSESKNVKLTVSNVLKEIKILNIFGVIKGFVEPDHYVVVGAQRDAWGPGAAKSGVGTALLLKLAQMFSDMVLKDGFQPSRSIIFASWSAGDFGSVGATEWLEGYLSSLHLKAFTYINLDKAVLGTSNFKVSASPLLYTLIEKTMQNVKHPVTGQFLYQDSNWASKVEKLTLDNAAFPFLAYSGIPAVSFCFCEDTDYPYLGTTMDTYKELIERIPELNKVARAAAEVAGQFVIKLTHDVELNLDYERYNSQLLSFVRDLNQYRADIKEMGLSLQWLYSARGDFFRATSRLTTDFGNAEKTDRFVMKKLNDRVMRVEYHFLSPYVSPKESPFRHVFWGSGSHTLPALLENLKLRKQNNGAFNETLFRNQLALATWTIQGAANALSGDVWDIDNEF

## L235 anti-human p97 monoclonal antibody
[1]
  Fluorescene Intensity (% of Control): 7.5 % of Control
[2]
  Fluorescene Intensity (% of Control): 6.8 % of Control
[3]
  FLUORESCENCE - converted linear value (converted linear value): 5.74
[4]
  FLUORESCENCE - converted linear value (converted linear value): 97.4
[5]
  FLUORESCENCE - converted linear value (converted linear value): 112
[6]
  FLUORESCENCE - converted linear value (converted linear value): 4.52
[7]
  FLUORESCENCE - converted linear value (converted linear value): 128
[8]
  FLUORESCENCE - converted linear value (converted linear value): 6.85
[9]
  Fluorescene Intensity (% of Control): 82.6 % of Control
[10]
  Fluorescene Intensity (% of Control): 10.8 % of Control

## OKT9 anti-human transferrin receptor monoclonal antibody
[11]
  Fluorescene Intensity (% of Control): 15.9 % of Control
[12]
  Fluorescene Intensity (% of Control): 120 % of Control

## T24/37.1 MAb (anti-Thy-1) (antibody)
[13]
  Fluorescene Intensity (% of Control): 136 % of Control
[14]
  Fluorescene Intensity (% of Control): 32.5 % of Control
